From PMC3436176 come the findings set out here.

For this assay, the target named is III-30A (human). Briefly: ELISA.

Chain of GPVIex (recombinant extracellular domain of GPVI) (Q9HCN6 21-214): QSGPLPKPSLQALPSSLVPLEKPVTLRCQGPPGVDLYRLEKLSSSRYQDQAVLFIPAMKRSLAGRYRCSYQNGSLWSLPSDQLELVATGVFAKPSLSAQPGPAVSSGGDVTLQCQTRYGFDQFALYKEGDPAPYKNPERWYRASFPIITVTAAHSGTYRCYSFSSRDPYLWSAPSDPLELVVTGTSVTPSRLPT

In general, Kd refers to the free concentration of one partner at which half of the binding sites on the other are occupied at equilibrium, for simple one-to-one binding. Read a low Kd as higher affinity. Regarding “GPVIex (recombinant extracellular domain of GPVI) (from UniProt Q9HCN6 21-214) (domain or fragment)”, the Kd was 10.2 µM.
